Tests used:
[1] = tested on: Pa-30S small ribosomal subunit;Pa-aIF1*-K34A (Pyrococcus abyssi;Pyrococcus abyssi); assay: fluorescence anisotropy; details: Anisotropy: 10 mM HEPES pH 7.5, 200 mM NaCl, 10 mM Mg acetate, 0.1% Tween 20, 51 C; toeprinting: 10 mM HEPES pH 7.5, 158 mM NaCl, 20 mM NH4Cl, 13.5 mM Mg …
[2] = tested on: Pa-30S small ribosomal subunit;Pa-aIF1* (MDCC-coumarin labeled) (Pyrococcus abyssi;Pyrococcus abyssi); assay: fluorescence anisotropy; details: Kd of aIF1* for 30S:mRNA; best fit 0.2 nM; Anisotropy: 10 mM HEPES pH 7.5, 200 mM NaCl, 10 mM Mg acetate, 0.1% Tween 20, 51 C; toeprinting: 10 mM HEPES pH 7.5, 158 mM NaCl, 20 mM NH4Cl, 13.5 mM Mg …
[3] = tested on: Pa-30S small ribosomal subunit;Pa-aIF1*-Y32A (Pyrococcus abyssi;Pyrococcus abyssi); assay: fluorescence anisotropy; details: Anisotropy: 10 mM HEPES pH 7.5, 200 mM NaCl, 10 mM Mg acetate, 0.1% Tween 20, 51 C; toeprinting: 10 mM HEPES pH 7.5, 158 mM NaCl, 20 mM NH4Cl, 13.5 mM Mg …
[4] = tested on: Pa-30S small ribosomal subunit;Pa-aIF1*-R31A (Pyrococcus abyssi;Pyrococcus abyssi); assay: fluorescence anisotropy; details: Anisotropy: 10 mM HEPES pH 7.5, 200 mM NaCl, 10 mM Mg acetate, 0.1% Tween 20, 51 C; toeprinting: 10 mM HEPES pH 7.5, 158 mM NaCl, 20 mM NH4Cl, 13.5 mM Mg …
[5] = tested on: Pa-30S small ribosomal subunit;Pa-aIF1* unlabeled (Pyrococcus abyssi;Pyrococcus abyssi); assay: competition; details: Kd of unlabeled aIF1* for 30S:mRNA; 180 nM mRNA; Anisotropy: 10 mM HEPES pH 7.5, 200 mM NaCl, 10 mM Mg acetate, 0.1% Tween 20, 51 C; toeprinting: 10 mM HEPES pH 7.5, 158 mM NaCl, 20 mM NH4Cl, 13.5 mM Mg …
[6] = tested on: Pa-30S small ribosomal subunit;Pa-aIF1 (Pyrococcus abyssi;Pyrococcus abyssi); assay: fluorescence anisotropy; details: preformed 30S:aIF1; mRNA 0.5 nM; Anisotropy: 10 mM HEPES pH 7.5, 200 mM NaCl, 10 mM Mg acetate, 0.1% Tween 20, 51 C; toeprinting: 10 mM HEPES pH 7.5, 158 mM NaCl, 20 mM NH4Cl, 13.5 mM Mg …
[7] = tested on: Pa-30S small ribosomal subunit (Pyrococcus abyssi); assay: fluorescence anisotropy; details: 30S alone; mRNA 8 nM; Anisotropy: 10 mM HEPES pH 7.5, 200 mM NaCl, 10 mM Mg acetate, 0.1% Tween 20, 51 C; toeprinting: 10 mM HEPES pH 7.5, 158 mM NaCl, 20 mM NH4Cl, 13.5 mM Mg …
[8] = tested on: Pa-aIF1* (MDCC-coumarin labeled) (Pyrococcus abyssi); assay: fluorescence anisotropy; details: aIF1* binding to 30S, no mRNA; Anisotropy: 10 mM HEPES pH 7.5, 200 mM NaCl, 10 mM Mg acetate, 0.1% Tween 20, 51 C; toeprinting: 10 mM HEPES pH 7.5, 158 mM NaCl, 20 mM NH4Cl, 13.5 mM Mg …
[9] = tested on: Pa-aIF1*-R31A (Pyrococcus abyssi); assay: fluorescence anisotropy; details: Anisotropy: 10 mM HEPES pH 7.5, 200 mM NaCl, 10 mM Mg acetate, 0.1% Tween 20, 51 C; toeprinting: 10 mM HEPES pH 7.5, 158 mM NaCl, 20 mM NH4Cl, 13.5 mM Mg …
[10] = tested on: Pa-aIF1*-Y32A (Pyrococcus abyssi); assay: fluorescence anisotropy; details: Anisotropy: 10 mM HEPES pH 7.5, 200 mM NaCl, 10 mM Mg acetate, 0.1% Tween 20, 51 C; toeprinting: 10 mM HEPES pH 7.5, 158 mM NaCl, 20 mM NH4Cl, 13.5 mM Mg …
[11] = tested on: Pa-aIF1*-K34A (Pyrococcus abyssi); assay: fluorescence anisotropy; details: Anisotropy: 10 mM HEPES pH 7.5, 200 mM NaCl, 10 mM Mg acetate, 0.1% Tween 20, 51 C; toeprinting: 10 mM HEPES pH 7.5, 158 mM NaCl, 20 mM NH4Cl, 13.5 mM Mg …
[12] = tested on: Pa-aIF1* unlabeled (Pyrococcus abyssi); assay: competition; details: chase of labeled aIF1* from 30S; Anisotropy: 10 mM HEPES pH 7.5, 200 mM NaCl, 10 mM Mg acetate, 0.1% Tween 20, 51 C; toeprinting: 10 mM HEPES pH 7.5, 158 mM NaCl, 20 mM NH4Cl, 13.5 mM Mg …
[13] = biological target: Pyrococcus abyssi small ribosomal subunit (Pa-30S) (Pyrococcus abyssi); assay: fluorescence polarisation; fluorescence anisotropy of coumarin-labeled aIF1* (50 nM) titrated with purified Pa-30S, no mRNA; 51°C; 10 mM HEPES pH 7.5, 200 mM NaCl, 10 mM MgAc, 0.1% Tween 20; quadratic fit
[14] = biological target: Pyrococcus abyssi small ribosomal subunit (Pa-30S) (Pyrococcus abyssi); assay: fluorescence polarisation; fluorescence anisotropy of coumarin-labeled aIF1 (50 nM for the variants; 13 nM for Pa-aIF1*) titrated with Pa-30S:mRNA complex (30S with a 2-fold molar excess of mRNA); 51°C; 10 mM HEPES pH 7.5, 200 mM NaCl, 10 mM MgAc, 0.1% Tween 20; quadratic fit
[15] = biological target: Pyrococcus abyssi small ribosomal subunit (Pa-30S) (Pyrococcus abyssi); assay: as above; remark: listed apart in the source
[16] = biological target: Pyrococcus abyssi small ribosomal subunit (Pa-30S) (Pyrococcus abyssi)

Q: Which Kd [1] does the source give for “AUUUGGAGGUGAUUUAAAUGCCAAAG [wt-aEF1A mRNA 26-mer, unlabeled]” here?
A: The Kd was 45 nM.

Q: And the Kd [2]?
A: Its Kd is under 1 nM.

Q: And the Kd [3]?
A: Its Kd is 22 nM.

Q: And the Kd [4]?
A: Its Kd is under 3 nM.

Q: And the Kd [5]?
A: Its Kd is 0.4 nM.

Q: What does the source list for “AUUUGGAGGUGAUUUAAAUGCCAAAG [wt-aEF1A-mRNA 26-mer]”?
A: Kd [6]: 0.07 nM; Kd [7]: 3.3 nM

Q: Which Kd [8] does the source give for “Pa-30S (16S rRNA in small ribosomal subunit)” here?
A: Its Kd is 12 nM.

Q: What about the Kd [9] of the same substance?
A: The Kd was 84 nM.

Q: What about the Kd [10] of the same substance?
A: Its Kd is 20 nM.

Q: And the Kd [11]?
A: Its Kd is over 300 nM.

Q: And the Kd [12]?
A: Its Kd is 40 nM.

Q: How did the Kd [13] turn out when “Pa-aIF1* (Pyrococcus abyssi aIF1 K45C-C62S labeled with coumarin) (natural protein)” was run?
A: The Kd was 12 nM.

Q: And the Kd [14]?
A: Its Kd is 0.2 nM.

Q: And the Kd [15]?
A: Its Kd is under 1 nM.

Q: How did the Kd [13] turn out when Pa-aIF1*-K34A (natural protein) was run?
A: The Kd was over 300 nM.

Q: What about the Kd [15] of the same substance?
A: The Kd was 45 nM.

Q: How did the Kd [13] turn out when Pa-aIF1*-R31A (natural protein) was run?
A: Its Kd is 84 nM.

Q: What about the Kd [15] of the same substance?
A: The Kd was under 3 nM.

Q: Which Kd [13] does the source give for Pa-aIF1*-Y32A (natural protein) here?
A: Its Kd is 20 nM.

Q: What about the Kd [15] of the same substance?
A: The Kd was 22 nM.

Q: Which factor concentration needed for a toeprinting pattern of 30S:mRNA:aIF1 like that of wt-Pa-aIF1 [16] does the source give for Pa-aIF1-K34A (natural protein) here?
A: Its factor concentration needed for a toeprinting pattern of 30S:mRNA:aIF1 like that of wt-Pa-aIF1 is 8 fold.
